According to patent publication US20230181748A1, “MEANS AND METHODS FOR THE TREATMENT OF PATHOLOGICAL AGGREGATION” (priority 2020, published 2023):

Tests used:
Tau aggregates = Tau aggregates (Homo sapiens, UniProt P10636); assay: hetero-dimeric tandem capping peptide screen, Tau biosensor cell line; assay type: cell-based; conditions: 625 nM capping peptide, 50 nM Tau seeds, 24 hours
Sup35-NM aggregates = biological target: T1, Sup35-NM aggregates (Saccharomyces cerevisiae, UniProt P05453); assay: hetero-dimeric tandem capping peptide screen, NM biosensor cell line; assay type: cell-based; conditions: 625 nM capping peptide, 50 nM NM seeds, 24 hours
T1 sequence (P05453 1-253 limits assumed): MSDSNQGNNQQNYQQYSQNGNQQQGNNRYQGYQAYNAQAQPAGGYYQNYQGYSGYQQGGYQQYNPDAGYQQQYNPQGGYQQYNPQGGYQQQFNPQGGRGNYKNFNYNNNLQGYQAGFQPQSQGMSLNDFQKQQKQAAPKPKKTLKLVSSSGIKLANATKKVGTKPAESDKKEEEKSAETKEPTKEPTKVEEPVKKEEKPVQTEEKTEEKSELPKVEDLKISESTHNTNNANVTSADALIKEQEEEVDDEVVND

Aβ fibrils = biological target: T2, Aβ fibrils (Homo sapiens, UniProt P05067); assay: in vitro Aβ seeding aggregation assay (Th-T); assay type: biochemical; conditions: fibrils 10 μM preincubated with 50 μM capping peptide approx. 4 hours; 10% added to 10 μM monomeric Aβ
T2 construct: mixed with preformed, sonicated Aβ aggregates (2 μM)
Procedure: Capping peptides from Table 6 were freshly dissolved in DMSO (stock concentration 1 mM) and filtered before the assay. 1 μL peptide capping solution was mixed with 19 μL preformed, sonicated Aβ fibrils (stock concentration 10 μM). As such, this mixture contained 10 μM Aβ fibrils and 50 μM capping peptide and was incubated for approx. 4 hours. Next, freshly dissolved monomeric Aβ was prepared by separation on a column. This monomeric Aβ (final concentration 10 μM) was mixed with 10% of the Aβ fibrils-peptide mixture and Th-T was added to monitor aggregation.

Aβ aggregates = biological target: T3, Aβ aggregates (Homo sapiens, UniProt P05067); assay: Aβ biosensor screening assay; assay type: cell-based; conditions: for capping activity of single capping sequence across all hetero-tandem peptides: analysis of all tandems containing the single sequence (FIG. 22); for relative number of cells positive for induced Aβ aggregation (seeding capacity of Aβ seeds): 100 nM Aβ aggregates on cells, concentration range of capping peptide
T3 construct: mixed with preformed, sonicated Aβ aggregates (2 μM)
Procedure: Hetero-tandem capping peptides depicted in Table 5 were dissolved in DMSO, filtered and mixed with preformed, sonicated Aβ aggregates (2 μM). This mixture was incubated for approx. 4 hours and transfected into Aβ biosensor cells. Aβ biosensor cells stably express soluble Aβ-mCherry and Aβ aggregation can be induced by transfecting preformed Aβ aggregates in these cells (FIG. 17). The final concentration of Aβ aggregates on the cells is 100 nM and a concentration range of capping peptides was used. In other words, the condition in which no seeds are added is shown as 0, while the condition in which 100 nM Aβ aggregates are added (without capping peptides) is shown as 1.

preformed tau aggregates [1] = biological target: T4, preformed tau aggregates (Homo sapiens, UniProt P10636); assay: tau biosensor seeding assay; assay type: cell-based; conditions: 20 hours after transfection; for fraction of cells with green spots (induced tau aggregation) / fraction of cells with red spots (exogenous preformed tau aggregates): single concentration 500 nM on cells, 200 nM preformed tau aggregates
Procedure: The 33 different non-natural molecules (with a final concentration of 10 μM) were mixed with preformed (sonicated) tau aggregates (with a final concentration of 4 μM). The preformed tau aggregates are labeled with a far-red atto-633 dye to monitor the efficiency of cellular uptake and degradation. After an incubation of 6 hours the resulting non-natural molecule—tau aggregate mixture was transfected in tau biosensor cells (described in Holmes et al (2014) Proc Natl Acad Sci USA. 111(41): E4376-E4385). The tau biosensor cell line is a monoclonal FRET biosensor HEK293T cell line stably expressing both the tau repeat domain (RD) fused to the fluorescent protein CFP and the tau repeat protein fused to the fluorescent protein YFP. Without the addition of preformed tau seeds, the biosensor cells stably express diffuse tau (soluble). However, exposure to exogenous preformed tau aggregates induces tau aggregation, generating a FRET signal with the CFP-YFP pair, intensifying the fluorescent signal in the tau inclusions. The FRET signal allows to distinguish the tau aggregate formation from the monomeric background. The use of phospholipids (e.g. lipofectamine—Source: Thermofisher) for the transfection of exogenous tau aggregates maximizes the aggregate inducing capacity.
The final peptide concentration of the non-natural molecules applied on the cells is 500 nM and the final concentration of preformed tau aggregates is 200 nM. 20 hours after transfection cells were fixed and two readouts were used to quantify the activities of the non-natural molecules: • determination of the fraction of cells with green spots: these are the cells that have induced tau aggregation. • determination of the fraction of cells with red spots: these are the cells that are positive for preformed tau aggregates.
In this example non-natural molecules of the invention were generated based on the sequences of capping peptides CAP1_TR and HET (sequences depicted in column 2 in Table 2). A tau biosensor seeding assay was performed with a concentration range of peptides. Thus, the assay is the same as described in example 2 but now a range of concentrations of capping peptides and non-natural molecules comprising the capping peptides were used to incubate with preformed tau aggregates. FIGS. 6 and 7 depict the final concentration of the peptides and derived non-natural molecules applied on the cells (see FIGS. 6 and 7).

preformed tau aggregates [2] = biological target: T4, preformed tau aggregates; assay: Microscale Thermophoresis (MST) with preformed tau aggregates; assay type: binding
Procedure: To measure the affinity of the capping peptides, and non-natural molecules derived thereof, with full length tau, we performed Microscale Thermophoresis (MST, Monolith NT.Automated) experiments. Briefly, atto-633-labeled tau monomers or atto-633-labeled preformed tau aggregates were mixed with a concentration range of capping peptides, and non-natural molecules derived thereof, and MST measurement were performed.

preformed tau aggregates [3] = biological target: T4, preformed tau aggregates; assay: spreading of tau pathology in hTau[P301L] mice; assay type: in vivo; conditions: tau aggregates pretreated 6 hours, injected in hippocampus of hTau[P301L] mice; nine weeks; vs vehicle
Procedure: In an alternative transgenic murine model preformed tau aggregates are pretreated with the non-natural molecule (SEQ ID NO: 22) and after an incubation of 6 hours, this preformed mixture is injected into the hippocampus of young hTau^[P301L] mice (see Kent BA et al (2017) Brain Behay. 8(1) e00896), which haven't developed any tau pathology yet. Nine weeks after injection mice are sacrificed. Immunohistochemical (IHC) quantification of AT8-positive inclusions in the ipsilateral (injection site) and contralateral hippocampus (opposite site) is conducted. Preformed tau aggregates pretreated with a buffer serve as a control vehicle. We observe that the level of tau pathology spread to the contralateral hippocampus is reduced when the non-natural molecule depicted in SEQ ID NO: 22 is applied as compared to the vehicle.

T2 sequence (P05067 672-713 limits assumed): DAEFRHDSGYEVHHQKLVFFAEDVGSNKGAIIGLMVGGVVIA
T3 sequence (P05067 672-713 limits assumed): as above
T4 sequence (P10636 1-441 isoform P10636-8): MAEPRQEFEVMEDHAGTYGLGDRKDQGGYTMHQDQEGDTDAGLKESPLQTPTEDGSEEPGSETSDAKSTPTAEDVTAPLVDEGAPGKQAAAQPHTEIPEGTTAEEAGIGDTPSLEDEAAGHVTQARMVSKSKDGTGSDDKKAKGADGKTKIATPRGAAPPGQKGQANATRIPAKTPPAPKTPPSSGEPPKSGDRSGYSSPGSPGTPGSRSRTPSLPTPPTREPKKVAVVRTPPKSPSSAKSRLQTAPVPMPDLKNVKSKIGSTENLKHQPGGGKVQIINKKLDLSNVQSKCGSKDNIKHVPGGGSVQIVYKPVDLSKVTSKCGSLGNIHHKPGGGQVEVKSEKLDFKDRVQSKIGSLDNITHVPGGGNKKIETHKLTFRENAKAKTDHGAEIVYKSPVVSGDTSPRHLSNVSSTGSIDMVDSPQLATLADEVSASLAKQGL
Sequence of Tau aggregates (P10636 1-441 isoform P10636-8): as above

Substance: EQIINKGSFQIVYK (Capping peptide) [CAP_4D]
- fraction of cells with induced aggregates, normalized (Tau aggregates): most performant peptides
- specificity for tau aggregation (a-specific effects in Sup35-NM biosensor line) (Sup35-NM aggregates): specific for inhibiting tau aggregation

Substance: GWVVIAGSKLKFFA (Capping peptide) [AbCAP19]
- seeding capacity of preformed, sonicated Aβ fibrils (Th-T aggregation) (Aβ fibrils): clear effect on the seeding capacity

Substance: KLWFFA (Capping peptide)
- capping activity of single capping sequence across all hetero-tandem peptides (Aβ aggregates): score well at the highest concentrations

Substance: MVGGPVGSKLKFFA (Capping peptide) [AbCap 14]
- relative number of cells positive for induced Aβ aggregation (seeding capacity of Aβ seeds) (Aβ aggregates): effect at the highest concentrations

Substance: MVGGVKGSKWVFFP (Capping peptide) [AbCap 11]
- relative number of cells positive for induced Aβ aggregation (seeding capacity of Aβ seeds) (Aβ aggregates): effect at the highest concentrations

Substance: MVWGVV (Capping peptide)
- capping activity of single capping sequence across all hetero-tandem peptides (Aβ aggregates): score well at the highest concentrations

Substance: MVWGVVGSKLKFFA (Capping peptide) [AbCAP_2]
- seeding capacity of preformed, sonicated Aβ fibrils (Th-T aggregation) (Aβ fibrils): clear effect on the seeding capacity

Substance: MVWGVVGSKLWFFA (Capping peptide) [AbCAP3]
- seeding capacity of preformed, sonicated Aβ fibrils (Th-T aggregation) (Aβ fibrils): clear effect on the seeding capacity

Substance: MVWGVVGSKWVFFA (Capping peptide) [AbCap 4]
- relative number of cells positive for induced Aβ aggregation (seeding capacity of Aβ seeds) (Aβ aggregates): concentration-dependent effect
- seeding capacity of preformed, sonicated Aβ fibrils (Th-T aggregation) (Aβ fibrils): clear effect on the seeding capacity

Substance: RWQIVYKEGSRWQIVYKR [CAP1_TR]
- fraction of cells with red spots (exogenous tau aggregates; tau aggregate degradation) (preformed tau aggregates [1]; concentration range of peptide, tau aggregates pre-treated 6 hours): slight reduction in cells positive for red spots in the highest concentration

Substance: VQWINKGSVQMVYK (Capping peptide) [CAP_1E]
- fraction of cells with induced aggregates, normalized (Tau aggregates): most performant peptides
- specificity for tau aggregation (a-specific effects in Sup35-NM biosensor line) (Sup35-NM aggregates): specific for inhibiting tau aggregation

Substance: VQWINKGSWQIVYK (Capping peptide) [CAP_1A]
- fraction of cells with induced aggregates, normalized (Tau aggregates): most performant peptides
- specificity for tau aggregation (a-specific effects in Sup35-NM biosensor line) (Sup35-NM aggregates): specific for inhibiting tau aggregation

Substance: WQIVYKGSVWMINK [HET]
- fraction of cells with green spots (induced tau aggregation) (preformed tau aggregates [1]): reduced tau aggregation
- fraction of cells with red spots (exogenous preformed tau aggregates) (preformed tau aggregates [1]): reduction in exogenous preformed tau aggregates
- affinity for tau aggregates compared to tau monomers (MST) (preformed tau aggregates [2]; aggregates versus monomers): higher affinity for tau aggregates compared to tau-monomers
- affinity for tau aggregates (MST) (preformed tau aggregates [2]; atto-633-labeled preformed tau aggregates, concentration range): measured affinities are significantly higher compared to CAP1_TR variants

Substance: WQIVYKGSVWMINKGSGSKFERQKILDQRFFE (HET_CMA1) [HET-CMA1]
- fraction of cells with green spots (induced tau aggregation) (preformed tau aggregates [1]): reduced tau aggregation
- fraction of cells with red spots (exogenous preformed tau aggregates) (preformed tau aggregates [1]): reduction in exogenous preformed tau aggregates

Substance: WQIVYKGSVWMINKGSGSNLLRLTGW (HET_JAV) [HET-JAV]
- level of tau pathology spread to the contralateral hippocampus (AT8-positive inclusions, IHC) (preformed tau aggregates [3]): reduced
- fraction of cells with green spots (induced tau aggregation) (preformed tau aggregates [1]): reduced tau aggregation
- fraction of cells with red spots (exogenous preformed tau aggregates) (preformed tau aggregates [1]): reduction in exogenous preformed tau aggregates

Substance: WQIVYKGSVWMINKGSGSVKKDQGSKFERQ (HET_CMA2) [HET-CMA2]
- fraction of cells with green spots (induced tau aggregation) (preformed tau aggregates [1]): reduced tau aggregation
- fraction of cells with red spots (exogenous preformed tau aggregates) (preformed tau aggregates [1]): reduction in exogenous preformed tau aggregates
